According to US20130288275A1, “COMPOSITIONS AND METHODS FOR DETECTING ACETYLATED SUMO PROTEINS” (Georgetown University, priority 2010, published 2013):

System: H1299 cells
Assay: Cell cycle analysis by flow cytometry
Format: cell-based, human
Details: H1299 cells infected with adenovirus expressing p53, 72 hours after infection
Description: FIG. 5. […] 72 hours after infection, cells were harvested and their cell cycle profile was analyzed (see materials and methods). B-C.
Flow cytometry was performed as described previously by Knights, C. D., et al. J. Cell Biol. 173(4):533-544 (2006).

B1: SUMO-1K37-48R: SUMO-1 mutant with lysines K37-K39 and K45, K46 and K48 substituted with arginine (protein, UniProt P63165 2-97, looked up, variant K37R K39R K45R K46R K48R)
Small ubiquitin-related …: SDQEAKPSTEDLGDKKEGEYIKLKVIGQDSSEIHFRVRMTTHLRRLRESYCQRQGVPMNSLRFLFEGQRIADNHTPKELGMEEEDVIEVYQEQTGG
For B1, the apoptotic cells was ~2%.
